This note sets out measurements from patent US20240059789A1 (Janssen / Centocor, published 2024).

The target of test [1] is T1, Human PSMA on prostate cancer cell lines (C4-2B, 22RV1) (human, UniProt Q04609 1-750).
T1 construct: Endogenous PSMA of the human cell lines; also called PSMA+ cells; PSMA-expressing cell lines
Kind of test: binding curves on C4-2B cells, 37 C, 1 h incubation, four-parameter fit. How it is done: Molecule concentrations ranged from 500-0 nM over 12-points at 3-fold dilution. […] Values reported in the Table 32 were generated by fitting the data to a four-parameter function for ligand binding generating values for y-min, y-max, EC50, and Hill. EC90 were calculated using the equation EC90=(90[…](100−90))\hat{ }(1/Hill)*EC50.

Test [2] deals with T2, Avi-6xHis-GS-cyno PSMA ECD (PSMW1) (Macaca fascicularis, UniProt Q04609 48-750 (human entry)).
T2 construct: also called PSMW1.009; cy PSMA
T2 chain: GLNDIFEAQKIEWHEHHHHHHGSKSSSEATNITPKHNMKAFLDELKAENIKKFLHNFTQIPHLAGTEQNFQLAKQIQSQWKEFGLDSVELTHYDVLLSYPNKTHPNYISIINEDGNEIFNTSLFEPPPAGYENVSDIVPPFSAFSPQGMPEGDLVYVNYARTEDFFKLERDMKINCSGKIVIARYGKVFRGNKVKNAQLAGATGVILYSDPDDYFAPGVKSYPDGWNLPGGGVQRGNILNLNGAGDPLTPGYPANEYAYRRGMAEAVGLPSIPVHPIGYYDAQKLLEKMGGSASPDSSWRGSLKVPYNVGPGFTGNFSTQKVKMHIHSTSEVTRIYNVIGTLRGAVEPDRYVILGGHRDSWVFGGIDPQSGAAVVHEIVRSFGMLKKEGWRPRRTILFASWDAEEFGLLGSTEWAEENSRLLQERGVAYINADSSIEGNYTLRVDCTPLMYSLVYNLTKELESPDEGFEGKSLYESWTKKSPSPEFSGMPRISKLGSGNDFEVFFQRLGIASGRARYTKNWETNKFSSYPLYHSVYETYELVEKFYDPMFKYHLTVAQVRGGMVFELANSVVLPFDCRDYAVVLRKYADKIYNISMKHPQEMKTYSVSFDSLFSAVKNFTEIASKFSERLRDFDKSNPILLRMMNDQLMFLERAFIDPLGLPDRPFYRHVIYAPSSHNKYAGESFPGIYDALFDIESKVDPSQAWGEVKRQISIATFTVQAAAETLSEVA
The test can be described thus: SPR Biacore 8K, mAb captured by anti-Fc, antigen in solution. The procedure: (§1) The association and dissociation were monitored for 3 and 15 minutes, respectively, using a flow rate of 50 μL/min. Raw binding data was referenced by subtracting the analyte binding signals from blanks and analyzed using a 1:1 Langmuir binding model using the Biacore Insight evaluation software to obtain the kinetics, which were used to calculate the binding affinity. The anti-PSMA were captured using an anti-human Fc antibody and the antigens were injected in solution.
(In general: Surface plasmon resonance follows binding to a sensor surface in real time, without labels.)

Test [3] addresses T3, Human PSMA ECD (Lys44-Ala750), N-6xHis (PSMW39) (human, UniProt Q04609 44-750).
T3 construct: also called PSMW39.002; hu PSMA
The test is described as above. The procedure: as §1

The target in test [4] is T1, Human PSMA on prostate cancer cell …. The test can be described thus: flow cytometry on C4-2B cells. How it is done:
(§2) Selected anti-PSMA antibodies were evaluated for binding to commercial prostate cancer cell lines. C4-2B cells were originally developed at MD Anderson and are derived from LNCaP FGC grown in vivo and metastasize to bone marrow (Thalmann, et al 1994, Cancer Research 54, 2577-81). 22Rv1 cells are a human prostate carcinoma epithelial cell line derived from a xenograft that was serially propagated in mice after castration-induced regression and relapse of the parental, androgen-dependent CWR22 xenograft. 22RV1 and C4-2B cells were plated at 50,000 cells per well in 50 μl of assay medium (RPMI, 10% HI FBS) in V bottom plates. Serial dilutions of antibodies were prepared in assay medium with 50 μl of antibody dilutions added to the plates containing cells. The plates were incubated for 60 min at 37° C. at which time 100 μl of staining buffer (Becton Dickinson Cat #554657) was added to all wells of each plate. The plates were centrifuged at 300×G for 5 minutes and the medium was removed from the wells. 200 μl of staining buffer was added to all wells of each plate. The plates were centrifuged at 300×G for 5 minutes and the medium was removed from the wells. 50 μl of 2 μg/ml AlexaFluor647-labeled goat anti-human Fc was added to all wells of the plates and the plates were incubated for 30 minutes at 4° C. 150 μl of staining buffer was added to all wells of each plate. The plates were centrifuged at 300×G for 5 minutes and the medium was removed from the wells.
(In general: A flow cytometer gives signals particle by particle.)

Test [5] shares this target. Kind of test: flow cytometry on 22RV1 cells. The procedure: as §2
Test [6] deals with Avi-6xHis-GS-mouse PSMA (45-752) (PSMW29) (Mus musculus, UniProt O35409 45-752). The test can be described thus: SPR Biacore 8K, mAb captured by anti-Fc, antigen in solution. How it is done: as §1
The target in test [7] is T1, Human PSMA on prostate cancer cell …. The test can be described thus: flow cytometry on 22RV1 cells; 22RV1 cells.

T3 sequence (Q04609 other isoform, or with tags, fused parts or gaps): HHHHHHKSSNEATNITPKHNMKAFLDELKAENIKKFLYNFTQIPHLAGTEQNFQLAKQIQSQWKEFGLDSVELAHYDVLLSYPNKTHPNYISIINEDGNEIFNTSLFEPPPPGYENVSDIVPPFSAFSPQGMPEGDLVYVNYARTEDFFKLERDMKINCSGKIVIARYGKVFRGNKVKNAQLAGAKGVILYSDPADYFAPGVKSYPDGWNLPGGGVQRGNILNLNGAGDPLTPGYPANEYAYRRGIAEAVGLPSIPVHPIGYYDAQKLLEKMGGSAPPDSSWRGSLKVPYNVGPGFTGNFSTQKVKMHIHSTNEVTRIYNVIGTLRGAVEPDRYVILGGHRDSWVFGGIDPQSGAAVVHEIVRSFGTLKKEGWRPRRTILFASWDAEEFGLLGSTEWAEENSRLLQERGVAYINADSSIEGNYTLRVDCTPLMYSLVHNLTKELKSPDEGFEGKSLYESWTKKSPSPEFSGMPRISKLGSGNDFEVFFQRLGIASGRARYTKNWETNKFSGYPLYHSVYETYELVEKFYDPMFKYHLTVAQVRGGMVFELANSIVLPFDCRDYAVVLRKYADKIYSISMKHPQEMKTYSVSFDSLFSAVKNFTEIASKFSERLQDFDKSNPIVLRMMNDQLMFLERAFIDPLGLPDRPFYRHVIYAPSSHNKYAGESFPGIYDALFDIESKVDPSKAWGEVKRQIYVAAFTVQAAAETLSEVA
T1 sequence (Q04609 whole entry): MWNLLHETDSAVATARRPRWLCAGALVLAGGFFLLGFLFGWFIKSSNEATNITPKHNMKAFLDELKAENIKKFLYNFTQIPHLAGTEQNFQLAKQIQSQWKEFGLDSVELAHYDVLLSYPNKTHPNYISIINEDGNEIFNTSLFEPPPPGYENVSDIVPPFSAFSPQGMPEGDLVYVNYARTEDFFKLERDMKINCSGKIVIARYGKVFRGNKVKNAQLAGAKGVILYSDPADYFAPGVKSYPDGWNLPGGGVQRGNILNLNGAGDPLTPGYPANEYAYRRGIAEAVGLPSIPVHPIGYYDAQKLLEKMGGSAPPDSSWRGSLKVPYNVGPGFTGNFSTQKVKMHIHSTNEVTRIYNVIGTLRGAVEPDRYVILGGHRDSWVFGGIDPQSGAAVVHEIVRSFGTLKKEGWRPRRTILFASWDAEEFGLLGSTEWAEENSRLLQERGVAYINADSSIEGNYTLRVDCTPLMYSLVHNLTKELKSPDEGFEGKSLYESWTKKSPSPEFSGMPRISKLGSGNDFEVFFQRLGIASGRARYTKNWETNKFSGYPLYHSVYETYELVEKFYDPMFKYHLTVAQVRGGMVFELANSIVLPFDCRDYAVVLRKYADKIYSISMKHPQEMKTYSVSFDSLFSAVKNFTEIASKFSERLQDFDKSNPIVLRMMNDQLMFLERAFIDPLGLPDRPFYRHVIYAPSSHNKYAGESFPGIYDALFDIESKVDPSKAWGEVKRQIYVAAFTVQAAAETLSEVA

B1: PSMB1069 (bispecific antibody, human IgG1, kappa, L234A L235A)
heavy: not shown
light: not shown
chain: QVQLVESGGGEVQPGRSLRLSCAASGFSFSGYGMHWVRQAPGKGLEWVAVMSYDGSNRFYVDSVRGRFSISRDNSKNTLYLQMNSLRPEDTAVYYCARDTVWGSHPDAFDIWGQGTVVTVSSGGSEGKSSGSGSESKSTGGSQSVLTQPPSVSVAPGQTARITCGGNNSGSKSVHWYQQKPGQAPVLVVYDDSDRPSGIPERFSGSNSGNTATLTISRVEAGDEADYYCQVWDSSSDHGVFGGGTKLTVLEPKSSDKTHTCPPCPAPEAAGGPSVFLFPPKPKDTLMISRTPEVTCVVVSVSHEDPEVKFNWYVDGVEVHNAKTKPREEQYNSTYRVVSVLTVLHQDWLNGKEYKCKVSNKALPAPIEKTISKAKGQPREPQVYVLPPSREEMTKNQVSLLCLVKGFYPSDIAVEWESNGQPENNYLTWPPVLDSDGSFFLYSKLTVDKSRWQQGNVFSCSVMHEALHNHYTQKSLSLSPG
notes: Null CD3 arm; one PSMA scFv; also called HC1 (ZWA): B23B62-Fab
Consider B1, for which the “fold binding signal (Y-max) over the average of the molecules” value in test [1] worked out at 2 fold.

B2: PSMB891 (antibody, human IgG1, lambda, L234A L235A, V domains shown)
VH: EVQLVESGGGVVQPGRSLRLSCAASGFTFITYGMHWVRQAPGKGLEWVAVVSFDESNKYYADSVKGRFTISRDNSKNTLYLQMNSLRAEDTAVYYCARALRDGNNWDYFNGMDVWGQGTTVTVSS
VL: not shown
The Kd is the free concentration of one partner at which half of the binding sites on the other are occupied at equilibrium, for simple one-to-one binding. Low values mean a tighter complex, high ones a looser complex. Broadly, the EC50 is the concentration giving half of the maximal effect. Low readings indicate a more potent agent, high ones a less potent agent. Consider B2, for which the Kd in test [2] was not above 0.21 nM; in test [3] it was not above 0.253 nM. Also, the figures for the concentration for a half-maximal effect (EC50) in test [4] and in test [5] were 1.99 nM and 0.554 nM, respectively.

B3: PSMB892 (antibody, human IgG1, lambda, L234A L235A, V domains shown)
VH: EVQLVESGGGVVQPGRSLRLSCAASGFTFITYGMHWVRQAPGKGLEWVAVVSFDESNKYYADSVKGRFTISRDNSKNTLYLQMNSLRAEDTAVYYCARALRDGNNWDYFNGMDVWGQGTTVTVSS
VL: QSVLTQPPSVSGAPGQRVTISCTGSSSNIGADYDVHWYQHLPGTAPKLLIYGNSNRPSGVPDRFSGSKSGTSASLAITGLQAEDETDYYCQSYDSSLSGWVFGGGTKLTVLG
In the case of B3, the dissociation constant Kd is 5.67 nM in test [2], 3.22 nM in test [3] and 0.404 nM in test [6]. The 50% effective concentration (EC50) in test [4] is 22.4 nM; in test [7] it was more than 60 nM.

B4: PSMB896 (antibody, human IgG1, lambda, L234A L235A, V domains shown)
VH: EVQLVESGGGLVQPGGSLRLSCAASGFTFSSYAMSWVRQAPGKGLEWVSAISGGIGSTYYADSVKGRFTISRDNSKNTLWLQMNSLRAEDTAVYYCAKDGVGATPYYFDYWGQGTLVTVSS
VL: QSVLTQPPSVSAAPGQKVTISCSGSSSNIGINYVSWYQQLPGTAPKLLIYDNNKRPSGIPDRFSGSKSGTSATLGITGLQTGDEADYYCGTWDSSLSAVVFGGGTKLTVLG
In the case of B4, the dissociation constant (Kd) in test [2] is 0.658 nM; in test [3], not above 0.0876 nM; in test [6] it was 1.36 nM. For the same molecule, the EC50 in test [4] was determined as 25.8 nM; in test [5] it was 1.24 nM.
